In the assay the target is T1, mouse NR 10 (mouse, UniProt Q8K5B1 19-716).
T1 construct: In the proliferation assays it is expressed on Ba/F3 cells together with mouse OSMR, with which it forms the IL-31 receptor; also called mNR 10; IL-31RA
T1 sequence: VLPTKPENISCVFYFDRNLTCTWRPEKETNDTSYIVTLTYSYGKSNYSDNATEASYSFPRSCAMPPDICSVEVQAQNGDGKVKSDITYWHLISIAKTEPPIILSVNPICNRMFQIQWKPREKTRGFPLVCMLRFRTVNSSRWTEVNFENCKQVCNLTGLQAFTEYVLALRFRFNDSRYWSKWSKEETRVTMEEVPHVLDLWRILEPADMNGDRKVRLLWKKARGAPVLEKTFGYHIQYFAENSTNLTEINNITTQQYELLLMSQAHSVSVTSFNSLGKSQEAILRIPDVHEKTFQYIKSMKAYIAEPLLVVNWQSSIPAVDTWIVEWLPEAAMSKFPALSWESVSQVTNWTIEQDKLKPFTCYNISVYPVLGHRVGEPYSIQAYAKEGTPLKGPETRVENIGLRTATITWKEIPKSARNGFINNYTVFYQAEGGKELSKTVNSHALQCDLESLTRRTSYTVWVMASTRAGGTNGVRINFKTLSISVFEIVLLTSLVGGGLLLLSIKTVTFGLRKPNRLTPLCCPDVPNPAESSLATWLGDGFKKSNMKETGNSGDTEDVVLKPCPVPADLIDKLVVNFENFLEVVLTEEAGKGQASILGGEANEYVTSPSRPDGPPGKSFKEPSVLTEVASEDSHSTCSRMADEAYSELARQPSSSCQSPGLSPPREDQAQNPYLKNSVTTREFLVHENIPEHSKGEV
Description: immunohistochemical staining of auricles of chronic dermatitis model mice. The source says: The expression of human NR 10 was reported to be enhanced in thickened epidermis of atopic dermatitis patients (Non-patent Document 1). Auricles of the above-described chronic dermatitis model mice were immunohistochemically stained.

B1: BM095 in which the constant region was replaced with that of human IgG (antibody, V domains shown)
VH: not shown
VL: LPVLTQPPSVSVAPGQTARITCGGNNIGSKTVYWYQQEPGQAPVLVVYDDTDRPAGIPERFSGANSGNTATLTISRVEAGDEADYYCQVWDSSTDHGVFGGGTKLTVLG
Regarding B1, the binding result was “binds”.

Values taken from patent US20150315280A1 (Chugai, published 2015).
